Results: patent US8334254

Legend:
[1] = target: lymphocytic lactoferrin receptor on Jurkat T lymphoblastic cells; experiment: 125I-labelled ligand binding to Jurkat cells at 4° C., Scatchard analysis
[2] = target: enterocytic lactoferrin receptor on HT-29-18C1 enterocytic cells (human); experiment: 125I-labelled ligand binding to HT-29-18C1 cells on ice, Scatchard analysis
[3] = target: enterocytic lactoferrin receptor on HT-29-18C1 enterocytic cells (human); experiment: 125I-labelled ligand on HT29 cells with 100 molar excess of non-labelled native Lf
[4] = target: lymphocytic lactoferrin receptor on Jurkat T lymphoblastic cells; experiment: 125I-labelled ligand on Jurkat cells with 100 molar excess of non-labelled native Lf

Row | Kd [1] | Kd [2] | sites per cell (sites per cell) [2] | non-specific binding as share of total binding [3] | non-specific binding as share of total binding [4] | Substance
1 | 89.7 nM | 1000 nM | 4e+06 | 25% | 25% | human lactoferrin isolated from human milk (from UniProt P02788 20-710) (ligand)
2 | 80.3 nM | 800 nM | 1.8e+06 | 25% | 25% | recombinant human lactoferrin rhLf2 from pBIOC21-PSSp-Lf, purified from tobacco leaves (transformant T30) (from UniProt P02788 20-710) (ligand)
